{
  "source": "patent US20090217392A1",
  "key": {"[1]": {"molecular_target": "human αvβ3 integrin on cells (human) (UniProt P06756)", "assay": "flow cytometry on M21 cells; signal of the competitor FITC-labeled CNTO95 at 2 µg/mL; row antibody at 20 µg/mL", "parameters": "% Positive: reference not given here"}, "[2]": {"molecular_target": "human αvβ3 integrin on cells (human) (UniProt P06756)", "assay": "flow cytometry on M21 cells; signal of the competitor FITC-labeled CNTO95 at 20 µg/mL; row antibody at 20 µg/mL"}, "[3]": {"molecular_target": "human αvβ5 integrin on cells (human) (UniProt P06756)", "assay": "flow cytometry on M21 cells; signal of the competitor FITC-labeled CNTO95 at 2 µg/mL; row antibody at 20 µg/mL", "parameters": "% Positive: reference not given here"}, "[4]": {"molecular_target": "human αvβ5 integrin on cells (human) (UniProt P06756)", "assay": "flow cytometry on M21 cells; signal of the competitor FITC-labeled CNTO95 at 20 µg/mL; row antibody at 20 µg/mL"}, "[5]": {"molecular_target": "αvβ3 and αvβ5 integrins on cells that express both (M21, A375S2/A375S.2, HUVEC) (human) (UniProt P06756)", "assay": "flow cytometry on M21 cells; FITC-goat anti-human Fc-labeled CNTO95 at 20 µg/mL, saline instead of competitor"}, "[6]": {"molecular_target": "αvβ3 and αvβ5 integrins on cells that express both (M21, A375S2/A375S.2, HUVEC) (human) (UniProt P06756)", "assay": "flow cytometry on M21 cells; FITC-goat anti-human Fc-labeled CNTO95 at 2 µg/mL, saline instead of competitor"}, "[7]": {"molecular_target": "αvβ3 and αvβ5 integrins on cells that express both (M21, A375S2/A375S.2, HUVEC) (human) (UniProt P06756)", "assay": "cell-based or functional assay"}, "[8]": {"settings": "scale: % of cell adhesion in the absence of antibody"}},
  "data": [
    {"substance": "LM609 (antibody)", "values": [
      {"measurement": "% Positive", "setting": "[1]", "result": 110, "unit": "%"},
      {"measurement": "MCF (median channel fluorescence)", "setting": "[1]", "result": 4.78},
      {"measurement": "% Positive", "setting": "[2]", "result": 93, "unit": "%"},
      {"measurement": "MCF (median channel fluorescence)", "setting": "[2]", "result": 13.3}
    ]},
    {"substance": "m7E3 IgG (antibody)", "values": [
      {"measurement": "% Positive", "setting": "[1]", "result": 132, "unit": "%"},
      {"measurement": "MCF (median channel fluorescence)", "setting": "[1]", "result": 5.73},
      {"measurement": "% Positive", "setting": "[2]", "result": 103, "unit": "%"},
      {"measurement": "MCF (median channel fluorescence)", "setting": "[2]", "result": 14.7}
    ]},
    {"substance": "P1F6 (antibody)", "values": [
      {"measurement": "% Positive", "setting": "[3]", "result": 112, "unit": "%"},
      {"measurement": "MCF (median channel fluorescence)", "setting": "[3]", "result": 4.87},
      {"measurement": "% Positive", "setting": "[4]", "result": 101, "unit": "%"},
      {"measurement": "MCF (median channel fluorescence)", "setting": "[4]", "result": 14.5}
    ]},
    {"substance": "CNTO 95 (antibody)", "values": [
      {"measurement": "MCF (median channel fluorescence)", "setting": "[5]", "result": 14.3},
      {"measurement": "MCF (median channel fluorescence)", "setting": "[6]", "result": 4.33},
      {"measurement": "minimal concentration for complete inhibition of MDAMB435L2 cell adhesion to vitronectin", "setting": "[7]", "result": 1.5, "unit": "µg/mL"},
      {"measurement": "A375S.2 cell adhesion to fibrin, antibody 10 µg/ml", "setting": "[7]; [8]", "result": 43.3},
      {"measurement": "A375S.2 cell adhesion to fibrinogen, antibody 10 µg/ml", "setting": "[7]; [8]", "result": 11.4},
      {"measurement": "A375S.2 cell adhesion to gelatin, antibody 10 µg/ml", "setting": "[7]; [8]", "result": 23.2},
      {"measurement": "A375S.2 cell adhesion to vitronectin, antibody 10 µg/ml", "setting": "[7]; [8]", "result": 1.4},
      {"measurement": "HUVEC adhesion to fibrin, antibody 10 µg/ml", "setting": "[7]; [8]", "result": 45.1},
      {"measurement": "HUVEC adhesion to fibrinogen, antibody 10 µg/ml", "setting": "[7]; [8]", "result": 34.5},
      {"measurement": "HUVEC adhesion to gelatin, antibody 10 µg/ml", "setting": "[7]; [8]", "result": 54.8},
      {"measurement": "HUVEC adhesion to vitronectin, antibody 10 µg/ml", "setting": "[7]; [8]", "result": 3.3}
    ]}
  ]
}
